# Measurements reported in patent US9289381B2, “Stabilization and storage of biological pharmaceutical compositions” (The University of North Carolina at Charlotte, priority 2009, dated 2016).
# Values joined by “and” are separate entries in the source; they are usually repeats but may differ in a detail not shown here. Equal values may be shown once.
# Experiment: Microcalorimetry (DSC) of HEWL dispersions stored in 80% w/w CDHP or 0.1M NaOAc
# Type: physicochemical
# Design: Thermal transition midpoint temperature of HEWL: unit not given here
# Procedure: The samples were formulated in 2 ml silanized glass vials to reduce protein-surface interactions, covered with cap and septa, wrapped with parafilm to ensure no drying out of the sample, and stored away from sunlight. They were stirred for at least 24 hours until a homogeneous distribution of protein was obtained. […] The 35 silanized vials were exposed to UV light for 24 hours to ensure sterility. Control samples at equivalent concentrations were also prepared in triplicates in 0.1M NaOAc buffer (pH 4). Samples were tested for thermal stability via microcalorimetry and functional activity via the micrococcus lysodeikticus assay at monthly intervals.
# A MicroCal VP-DSC microcalorimeter was used to assess thermal structural stability of all samples. Baseline repeatability was established with a minimum of 5 buffer-buffer scans. […] HEWL solutions were tested similarly with no dilution of the samples. Between samples, during the filling period of 15° C. to 25° C., the sample cell of the DSC was flushed with at least 25 ml distilled H2O, then at least 15 ml NaOAc to ensure no sample residue remained behind. Thermal profiles, enthalpy changes, and transition temperatures were obtained with Origin software.
# All formulations were diluted to 0.1-0.5 mg/ml for testing. This allows one to observe how well protein thermal stability and structural integrity is maintained following storage and then dilution into a solution of similar composition as the environment of the body.
# [1] = stored at 10 mg/ml in Choline dhp, 1 month
# [2] = stored at 10 mg/ml in Choline dhp, 2 months
# [3] = stored at 10 mg/ml in Choline dhp, 3 months
# [4] = stored at 10 mg/ml in Choline dhp, 4 months
# [5] = stored at 10 mg/ml in Choline dhp, 5 months
# [6] = stored at 100 mg/ml in Choline dhp, 0 months
# [7] = stored at 100 mg/ml in Choline dhp, 1 month
# [8] = stored at 100 mg/ml in Choline dhp, 2 months
substance,measurement,setting,value
"HEWL: hen egg white lysozyme (HEWL), a well characterized protein, purchased from Worthington Biochem","enthalpic change during unfolding at 1 month, % of the maximum (average)",10 mg/ml HEWL control formulation (0.1M NaOAc),64%
same,"enthalpic change during unfolding at 1 month, % of the maximum (average)",10 mg/ml HEWL in 80% w/w CDHP,87%
same,"enthalpic change during unfolding at 1 month, % of the maximum (average)",100 mg/ml HEWL control formulation (0.1M NaOAc),60%
same,"enthalpic change during unfolding at 1 month, % of the maximum (average)",100 mg/ml HEWL in 80% w/w CDHP,85%
same,"shelf-life (fraction of folded protein, Cp signal)","80% CDHP wt/wt vs 0.1M sodium acetate pH 4.0, 1-3 months at room temperature",superior shelf-life
same,drop of Tm over 5 months,HEWL control formulations (0.1M NaOAc),between one and two degrees
same,drop of Tm over 5 months,HEWL formulated in 80% w/w CDHP,less than a degree
same,Enthalpy of unfolding of HEWL,"stored at 10 mg/ml in 0.1M NaOAc, 0 months",416.27 kJ/mol and 428.986 kJ/mol and 441.328 kJ/mol
same,Enthalpy of unfolding of HEWL,"stored at 10 mg/ml in 0.1M NaOAc, 1 month",299.74 kJ/mol and 281.67 kJ/mol and 245.89 kJ/mol
same,Enthalpy of unfolding of HEWL,"stored at 10 mg/ml in 0.1M NaOAc, 2 months",225.33 kJ/mol and 220.97 kJ/mol and 237.99 kJ/mol
same,Enthalpy of unfolding of HEWL,"stored at 10 mg/ml in 0.1M NaOAc, 3 months",163.88 kJ/mol and 170.43 kJ/mol and 170.25 kJ/mol
same,Enthalpy of unfolding of HEWL,"stored at 10 mg/ml in 0.1M NaOAc, 4 months",104.059 kJ/mol and 154.522 kJ/mol and 112.787 kJ/mol
same,Enthalpy of unfolding of HEWL,"stored at 10 mg/ml in 0.1M NaOAc, 5 months",76.986 kJ/mol and 87.446 kJ/mol and 93.722 kJ/mol
same,Enthalpy of unfolding of HEWL,"stored at 10 mg/ml in Choline dhp (80% w/w CDHP), 0 months",426.768 kJ/mol and 425.513 kJ/mol and 453.127 kJ/mol
same,Thermal transition midpoint temperature of HEWL,"stored at 10 mg/ml in Choline dhp, 0 months",346.71 and 346.74
same,Enthalpy of unfolding of HEWL,[1],380.46 kJ/mol and 380.14 kJ/mol and 374.93 kJ/mol
same,Thermal transition midpoint temperature of HEWL,[1],346.7 and 346.62 and 346.75
same,Enthalpy of unfolding of HEWL,[2],337.95 kJ/mol and 331.52 kJ/mol and 331.01 kJ/mol
same,Thermal transition midpoint temperature of HEWL,[2],346.84 and 346.81 and 346.39
same,Enthalpy of unfolding of HEWL,[3],236.98 kJ/mol and 231.07 kJ/mol and 265.34 kJ/mol
same,Thermal transition midpoint temperature of HEWL,[3],346.98 and 346.52 and 346.35
same,Enthalpy of unfolding of HEWL,[4],195.48 kJ/mol and 198.15 kJ/mol and 214 kJ/mol
same,Thermal transition midpoint temperature of HEWL,[4],346.47 and 346.43 and 346.5
same,Enthalpy of unfolding of HEWL,[5],154.39 kJ/mol and 179.91 kJ/mol
same,Thermal transition midpoint temperature of HEWL,[5],346.27 and 346.37 and 346.21
same,Thermal transition midpoint temperature of HEWL,"stored at 10 mg/ml in NaOAc, 0 months",346.68 and 346.77 and 347.14
same,Thermal transition midpoint temperature of HEWL,"stored at 10 mg/ml in NaOAc, 1 month",345.79 and 345.93 and 345.94
same,Thermal transition midpoint temperature of HEWL,"stored at 10 mg/ml in NaOAc, 2 months",345.85 and 345.9 and 345.8
same,Thermal transition midpoint temperature of HEWL,"stored at 10 mg/ml in NaOAc, 3 months",345.72 and 345.9 and 345.48
same,Thermal transition midpoint temperature of HEWL,"stored at 10 mg/ml in NaOAc, 4 months",345.17 and 345.1 and 345.21
same,Thermal transition midpoint temperature of HEWL,"stored at 10 mg/ml in NaOAc, 5 months",345.13 and 345.05 and 345.15
same,Enthalpy of unfolding of HEWL,"stored at 100 mg/ml in 0.1M NaOAc, 0 months",423.17 kJ/mol and 440.157 kJ/mol and 452.709 kJ/mol
same,Enthalpy of unfolding of HEWL,"stored at 100 mg/ml in 0.1M NaOAc, 1 month",259.45 kJ/mol and 236.86 kJ/mol and 301.14 kJ/mol
same,Enthalpy of unfolding of HEWL,"stored at 100 mg/ml in 0.1M NaOAc, 2 months",243.97 kJ/mol and 254.63 kJ/mol and 228.99 kJ/mol
same,Enthalpy of unfolding of HEWL,"stored at 100 mg/ml in 0.1M NaOAc, 3 months",195 kJ/mol and 194.58 kJ/mol and 193.4 kJ/mol
same,Enthalpy of unfolding of HEWL,"stored at 100 mg/ml in 0.1M NaOAc, 4 months",129.239 kJ/mol and 134.1883 kJ/mol and 124.694 kJ/mol
same,Enthalpy of unfolding of HEWL,"stored at 100 mg/ml in 0.1M NaOAc, 5 months",112.13 kJ/mol and 121.75 kJ/mol and 99.998 kJ/mol
same,Enthalpy of unfolding of HEWL,[6],448.106 kJ/mol and 421.329 kJ/mol and 453.127 kJ/mol
same,Thermal transition midpoint temperature of HEWL,[6],347.45 and 347.05 and 347.11
same,Enthalpy of unfolding of HEWL,[7],376.43 kJ/mol and 374.91 kJ/mol and 367.67 kJ/mol
same,Thermal transition midpoint temperature of HEWL,[7],346.41 and 346.54 and 346.44
same,Enthalpy of unfolding of HEWL,[8],314.35 kJ/mol and 321.43 kJ/mol and 324.44 kJ/mol
same,Thermal transition midpoint temperature of HEWL,[8],346.42 and 346.43 and 346.47
